Experimental data as given in patent US20230048633A1 (SHATTUCK LABS, published 2023).
One block for each binder: values may come before it.

B2: recombinant 4-1BB-His protein (receptor, mouse, UniProt P20334 24-187, looked up)
chain: VQNSCDNCQPGTFCRKYNPVCKSCPPSTFSSIGGQPNCNICRVCAGYFRFKKFCSSTHNAECECIEGFHCLGPQCTRCEKDCRPGQELTKQGCKTCSLGTFNDQNGTGVCRPWTNCSLDGRSVLKTGTTEKDVVCGPPVVSFSPSTTISVTPEGGPGGHSLQVL
notes: also called m4-1BB-His; CD137; not shown: His tag

Columns and labels:
anti-human IgG antibody = biological target: T1, anti-human IgG antibody; assay: ELISA: plate coated with Anti-Human IgG (H+L) Jax# 109-005-088, titrated protein captured, detected with HRP Goat anti-human FCgamma Jax# 109-035-008
T1 construct: also called anti-human Fc antibody
Method: To understand whether the human Fc linkers from the native chimeric proteins can be accessed by anti-human antibodies, ELISA-based assays were performed. For these assays, an anti-human IgG antibody was coated on plates and increasing amounts of the hCD86-Fc-NKG2A, hTGFBR2-Fc-NKG2A, and mCD80-Fc-NKG2a chimeric proteins, and a human IgG antibody were added to the plates for capture by the plate-bound anti-human antibody. The human IgG antibody and the hCD86-Fc-NKG2A chimeric protein were used as a positive control. The mCD80-Fc-NKG2a chimeric protein was included as a negative control as containing a non-human Fc domain. The protein bound to the anti-human IgG antibody was detected using an anti-human Fcgamma HRP.

[1] = biological target: T2, recombinant mouse 4-1 BB Ligand protein (R&D Systems, Cat. No. 1246-4L) (mouse, UniProt P41274 104-309); assay: Octet (4-1BB Arc Octet): 41BB His (5ug/ml, Acro 41B-M52H7) on the tip, All Molecules at 30ug/ml; rm41BBL R&D 1246-4L
T2 construct: Bought reagent; also called commercially available recombinant mouse 4-1 BB Ligand protein
T2 sequence (looked up): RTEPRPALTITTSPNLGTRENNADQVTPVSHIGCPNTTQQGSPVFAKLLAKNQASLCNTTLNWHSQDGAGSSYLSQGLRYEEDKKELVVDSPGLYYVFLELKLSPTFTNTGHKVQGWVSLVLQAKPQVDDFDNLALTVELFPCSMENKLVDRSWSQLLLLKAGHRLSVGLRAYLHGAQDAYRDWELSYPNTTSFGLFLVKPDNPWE
Method: To study the binding kinetics of type II transmembrane protein domain and TGFBR2 parts of the illustrative TGFBR2-based chimeric proteins, binding assays were performed using the Octet system (ForteBio). Binding of the TGFBR2-Fc-4-1BBL chimeric protein to recombinant 4-1BB was analyzed. Briefly, recombinant 4-1BB-His protein was immobilized and detected using the mTGFBR2-Fc-4-1BBL chimeric protein, a positive control protein comprising Fc-4-1BBL (Control-Fc-4-1BBL) or commercially available recombinant mouse 4-1 BB Ligand protein (R&D Systems, Cat. No. 1246-4L). The binding response of the mTGFBR2-Fc-4-1BBL chimeric protein to 4-1BB-His protein was measured and plotted in real time on a sensorgram trace.

[2] = biological target: T3, m4-1BB expressed on CHO-K1 cells (CHO-K1/m4-1BB+ (C20)) (mouse, UniProt P20334 24-256); assay: flow cytometry on CHO-K1/m4-1BB+ (C20) cells, detected with Anti-mFc-APC (Jax 1:50)
T3 construct: whole, on cells; also called CHO-K1/4-1BB cells; 4-1BB expressed by the CHO-K1/4-1BB cells
T3 sequence (looked up): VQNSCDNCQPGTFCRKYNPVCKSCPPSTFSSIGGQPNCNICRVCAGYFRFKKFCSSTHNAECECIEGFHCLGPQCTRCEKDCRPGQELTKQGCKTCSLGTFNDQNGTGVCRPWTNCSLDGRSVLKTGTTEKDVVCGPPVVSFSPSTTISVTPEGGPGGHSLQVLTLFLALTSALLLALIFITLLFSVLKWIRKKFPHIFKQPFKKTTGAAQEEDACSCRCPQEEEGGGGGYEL
Method: To understand whether the 4-1BBL part of the mTGFBR2-Fc-4-1BBL chimeric protein can specifically bind cells expressing 4-1BB, cells expressing 4-1 BB were generated. Specifically, the CHO-K1 cells expressing 4-1 BB were generated using standard techniques. Clone 20, a positive clone, called CHO-K1/m4-1BB+ (C20), was used for further studies. To determine whether the mTGFBR2-Fc-4-1BBL chimeric protein can specifically bind the CHO-K1/4-1BB cells, a flow-cytometry-based assay was carried out. CHO-K1/m4-1BB+(C20) and WT CHO-K1 cells were stained with increasing concentrations of the TGFBR2-Fc-4-1BBL chimeric protein, or positive control protein comprising Fc-4-1BBL (Control-Fc-4-1BBL) and analyzed by flow cytometry. Unstained CHO-K1/m4-1BB+ (C20) and WT CHO-K1 cells or CHO-K1/m4-1BB+ (C20) and WT CHO-K1 cells stained without the TGFBR2-Fc-4-1BBL chimeric protein, or positive control protein comprising Fc-4-1BBL (Control-Fc-4-1BBL) were used as control.

[3] = biological target: B2; assay: ELISA: plate coated with 41BB-His (5ug/ml, Acro 41B-M52H7), titrated protein captured, detected with α-mFc-HRP (1:10k, Jax 115-036-003)
Method: The TGFBR2-based chimeric proteins harbor type II transmembrane protein domains at or near the C-terminus. To understand whether the type II transmembrane protein domains from the native chimeric proteins can bind their natural ligands/receptors, ELISA-based assays were performed. TGFBR2-Fc-4-1BBL comprises 4-1BB ligand (4-1BBL or TNFSF9) as the type II membrane protein located at or near the C-terminus. 4-1BB (CD137, TNFRSF9) is the natural receptor/ligand of 4-1BBL. To understand whether the type II transmembrane protein domain part of the native TGFBR2-Fc-4-1BBL chimeric protein can bind 4-1BB, ELISA-based assays were performed. Recombinant 4-1BB-His protein was coated on plates. Increasing amounts of the TGFBR2-Fc-4-1BBL chimeric protein, or a positive control protein comprising Fc-4-1BBL (Control-Fc-4-1BBL) were added for capture by the plate-bound 4-1BB-His protein. Binding was detected using an anti mFc-HRP antibody. […] Therefore, the type II transmembrane protein domain of the TGFBR2-Fc-4-1BBL and Control-Fc-4-1BBL chimeric proteins bind to the natural ligand/receptor of the 4-1BBL.

EC50 (read off the curve) (anti-human IgG antibody): ~10 µg/mL
B1: hTGFBR2-Fc-NKG2A chimeric protein (Fc fusion)
chain: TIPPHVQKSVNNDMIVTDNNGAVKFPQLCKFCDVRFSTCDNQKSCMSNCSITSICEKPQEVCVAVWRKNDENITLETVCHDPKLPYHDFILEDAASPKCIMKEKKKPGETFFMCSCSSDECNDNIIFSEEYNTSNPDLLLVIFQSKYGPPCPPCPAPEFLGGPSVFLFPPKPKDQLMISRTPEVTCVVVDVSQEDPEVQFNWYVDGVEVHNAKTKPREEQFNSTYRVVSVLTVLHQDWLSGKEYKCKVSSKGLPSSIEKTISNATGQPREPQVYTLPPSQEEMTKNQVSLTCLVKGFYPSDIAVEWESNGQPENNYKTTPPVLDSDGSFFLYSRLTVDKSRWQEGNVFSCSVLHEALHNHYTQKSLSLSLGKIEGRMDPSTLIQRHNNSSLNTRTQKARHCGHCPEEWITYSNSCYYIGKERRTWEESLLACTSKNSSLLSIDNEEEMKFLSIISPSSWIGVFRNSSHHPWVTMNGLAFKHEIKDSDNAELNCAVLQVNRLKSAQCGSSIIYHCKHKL
notes: also called human TGFBR2-Fc-NKG2A

Binder: B2
binding result [1]: binds

EC50 (read off the curve) [2]: ~0.08 µg/mL
EC50 (read off the curve) [3]: ~0.07 µg/mL
B3: mTGFBR2-Fc-4-1BBL chimeric protein (Fc fusion, mouse, UniProt Q62312 24-166, looked up)
chain: IPPHVPKSVNSDVMASDNGGAVKLPQLCKFCDVRLSTCDNQKSCMSNCSITAICEKPHEVCVAVWRKNDKNITLETVCHDPKLTYHGFTLEDAASPKCVMKEKKRAGETFFMCACNMEECNDYIIFSEEYTTSSPDLLLVIIQVPRDCGCKPCICTVPEVSSVFIFPPKPKDVLTITLTPKVTCVVVDISKDDPEVQFSWFVDDVEVHTAQTQPREEQFNSTFRSVSELPIMHQDWLNGKEFKCRVNSAAFPAPIEKTISKTKGRPKAPQVYTIPPPKEQMAKDKVSLTCMITDFFPEDITVEWQWNGQPAENYKNTQPIMNTNGSYFVYSKLNVQKSNWEAGNTFTCSVLHEGLHNHHTEKSLSHSPGKRTEPRPALTITTSPNLGTRENNADQVTPVSHIGCPNTTQQGSPVFAKLLAKNQASLCNTTLNWHSQDGAGSSYLSQGLRYEEDKKELVVDSPGLYYVFLELKLSPTFTNTGHKVQGWVSLVLQAKPQVDDFDNLALTVELFPCSMENKLVDRSWSQLLLLKAGHRLSVGLRAYLHGAQDAYRDWELSYPNTTSFGLFLVKPDNPWE
notes: extracellular domain;domain: hinge-CH2-CH3 Fc domain; also called murine TGFBR2-Fc-4-1BBL; TGFBR2-Fc-CD137L
